Measured values reported in the supplement of paper PMC9112550, “Optimization of the antimicrobial peptide Bac7 by deep mutational scanning” (BMC Biology, 2022).

System: Escherichia coli TOP10
Assay: shrunken log2 fold change of peptide-encoding DNA abundance (4.5 h post-induction vs induction); higher = less antimicrobial activity (less host growth inhibition)
Conditions: time post-induction: 4.5 h; library: site-saturation at positions 5, 18, 19, 20
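Note: peptides expressed intracellularly from a pBAD plasmid library in pooled LB shake-flask culture, induced with 0.3% L-arabinose, DNA abundance read by NGS, three biological replicates, DESeq2 with apeglm shrinkage.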

Sequence | shrunken log2 fold change
RRIRDRPPRLPRPRPRPEAAPRP | 1.84
RRIRDRPPRLPRPRPRPEAMPRP | -0.00943
RRIRDRPPRLPRPRPRPECCPRP | 0.828
RRIRDRPPRLPRPRPRPEDEPRP | 1.76
RRIRDRPPRLPRPRPRPEFFPRP | 0.896
RRIRDRPPRLPRPRPRPEGDPRP | 0.502
RRIRDRPPRLPRPRPRPEGFPRP | 0.638
RRIRDRPPRLPRPRPRPEHQPRP | -0.012
RRIRDRPPRLPRPRPRPEKDPRP | 0.194
RRIRDRPPRLPRPRPRPEKKPRP | -0.0317
RRIRDRPPRLPRPRPRPELLPRP | 0.011
RRIRDRPPRLPRPRPRPENNPRP | 0.264
RRIRDRPPRLPRPRPRPEPPPRP | 1.06
RRIRDRPPRLPRPRPRPESIPRP | -0.0509
RRIRDRPPRLPRPRPRPESKPRP | 0.0201
RRIRDRPPRLPRPRPRPESLPRP | 1.01
RRIRDRPPRLPRPRPRPEWDPRP | 1.4
RRIRDRPPRLPRPRPRPEWSPRP | 0.364
RRIRDRPPRLPRPRPRPEYLPRP | 0.0986
RRIRDRPPRLPRPRPRPEYNPRP | -0.116
RRIRDRPPRLPRPRPRPFAFPRP | 0.249
RRIRDRPPRLPRPRPRPFCYPRP | 0.0322
RRIRDRPPRLPRPRPRPFDEPRP | 0.0788
RRIRDRPPRLPRPRPRPFDQPRP | -0.115
RRIRDRPPRLPRPRPRPFDWPRP | 0.374
RRIRDRPPRLPRPRPRPFEYPRP | -0.00586
RRIRDRPPRLPRPRPRPFHIPRP | -0.254

Sequence | shrunken log2 fold change
RRIRDRPPRLPRPRPRPFKYPRP | 0.0966
RRIRDRPPRLPRPRPRPFMNPRP | -0.117
RRIRDRPPRLPRPRPRPFNHPRP | -0.368
RRIRDRPPRLPRPRPRPFPAPRP | 0.0806
RRIRDRPPRLPRPRPRPFQPPRP | 0.0201
RRIRDRPPRLPRPRPRPFRKPRP | -0.0314
RRIRDRPPRLPRPRPRPFSCPRP | 0.171
RRIRDRPPRLPRPRPRPFVHPRP | -0.0617
RRIRDRPPRLPRPRPRPFWAPRP | 0.141
RRIRDRPPRLPRPRPRPFWFPRP | 0.0429
RRIRDRPPRLPRPRPRPFYHPRP | -0.124
RRIRDRPPRLPRPRPRPGDIPRP | -0.0568
RRIRDRPPRLPRPRPRPGDLPRP | 0.178
RRIRDRPPRLPRPRPRPGDNPRP | 2.29
RRIRDRPPRLPRPRPRPGDTPRP | -0.11
RRIRDRPPRLPRPRPRPGEDPRP | -0.000687
RRIRDRPPRLPRPRPRPGERPRP | 0.276
RRIRDRPPRLPRPRPRPGFMPRP | 0.219
RRIRDRPPRLPRPRPRPGFSPRP | 0.0888
RRIRDRPPRLPRPRPRPGGGPRP | 1.08
RRIRDRPPRLPRPRPRPGGLPRP | 0.501
RRIRDRPPRLPRPRPRPGHKPRP | 0.00794
RRIRDRPPRLPRPRPRPGHMPRP | -0.0968
RRIRDRPPRLPRPRPRPGHQPRP | 0.137
RRIRDRPPRLPRPRPRPGLDPRP | 0.0981
RRIRDRPPRLPRPRPRPGMCPRP | 0.432
RRIRDRPPRLPRPRPRPGMGPRP | 0.645
